Measured values: the supplement of paper PMC7877785
± gives the uncertainty stated by the source.

Test: self-splicing fitness, log relative to wild type (ln ratio); higher = more splicing; Tetrahymena group I intron in knt gene, E. coli kanamycin selection, DiMSum; sequences stand for … in CUCUCU…GGAGGGAAAAGUUAUCAGGCAUGCACCUGGUAGCUAGUCUUUAAACCAAUAGAUUGCAUCGGUUUAAAAGGCAAGACCGUCAAAUUGCGGGAAAGGGGUCAACAGCCGUUCAGUACCAAGUCUCAGGGGAAACUUUGAGAUGGCCUUGCAAAGGGUAUGGUAAUAAGCUGACGGACAUGGUCCUAACCACGCAGCCAAGUCCUAAGUCAACAGAUCUUCUGUUGAUAUGGAUGCAGUUCACAGACUAAAUGUCGGUCGGGGAAGAUGUAUUCUUCUCAUAAGAUAUAGUCGGACCUCUCCUUAAUGGGAGCUAGCGGAUGAAGUGAUGCAACACUGGAGCCGCUGGGAACUAAUUUGUAUGCGAAAGUAUAUUGAUUAGUUUUGGAGUACUCGUGGUCG
Summary of the method: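 Pooled colonies went to amplicon sequencing on an Illumina HiSeq 2500 after six replicate transformations. The plates were LB agar with 100 μg/mL carbenicillin, 50 μM IPTG and 0.2% rhamnose, with or without 25 μg/mL kanamycin, incubated overnight at 37°C or 30°C. The E. coli BL21(DE3) library had all eight P1ex-region intron nucleotides randomised, the intron placed in the knt kanamycin-resistance gene on pET-22b(+). DiMSum fitness is the error-weighted combination of replicate fold changes, kanamycin against none, normalised to wild type.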

| Sequence | self-splicing fitness (ln) (30 °C) | self-splicing fitness (ln) (37 °C) |
| --- | --- | --- |
| UCGAAGCAAUAUUACGCAAG | -2.17 ± 0.12 | -1.6 ± 0.13 |
| GCGGAGCAAUAUUACGGAAU | -2.29 ± 0.21 | -3.42 ± 0.35 |
| UCCAAGCAAUAUUACGCCUA | -0.968 ± 0.12 | 0.0562 ± 0.1 |
| GAUGAGCAAUAUUACGGUCU | -3.87 ± 0.37 | -3.34 ± 0.26 |
| UUUAAGCAAUAUUACGGCUG | -0.528 ± 0.13 | -0.292 ± 0.16 |
| UAACAGCAAUAUUACGGUAU | -3.01 ± 0.11 | -2.06 ± 0.17 |
| AAGAAGCAAUAUUACGCUCG | -0.487 ± 0.078 | -0.257 ± 0.12 |
| UCGAAGCAAUAUUACGUGCC | -2.86 ± 0.42 |  |
| ACCGAGCAAUAUUACGUGAG | -2.27 ± 0.091 | -0.997 ± 0.091 |
| UUUCAGCAAUAUUACGCUCC | -1.69 ± 0.22 | -1.02 ± 0.29 |
| ACCCAGCAAUAUUACGGGGC | -4.5 ± 0.19 | -2.73 ± 0.14 |
| UUUUAGCAAUAUUACGAGAG | -1.12 ± 0.18 | -0.225 ± 0.21 |
| CGUCAGCAAUAUUACGAGCG | -3.52 ± 0.15 | -1.04 ± 0.15 |
| UUCGAGCAAUAUUACGAUCA | -1.89 ± 0.2 | -0.432 ± 0.14 |
| CCGGAGCAAUAUUACGGAGG |  | -2.35 ± 0.25 |
| AUUCAGCAAUAUUACGGAAG | -1.02 ± 0.096 | -0.0127 ± 0.11 |
| CACAAGCAAUAUUACGGGUU | -2.26 ± 0.068 | -1.52 ± 0.083 |
| GGUCAGCAAUAUUACGGCAC | -0.775 ± 0.13 | 0.566 ± 0.16 |
| UCUCAGCAAUAUUACGUACU | -3.39 ± 0.28 | -1.2 ± 0.19 |
| ACCGAGCAAUAUUACGGCUC | -4.07 ± 0.39 | -1.54 ± 0.35 |
| GUUGAGCAAUAUUACGCUUA | -2.55 ± 0.21 | -0.787 ± 0.17 |
| AUAGAGCAAUAUUACGUACC | -3.3 ± 0.16 | -1.3 ± 0.15 |
| GCAUAGCAAUAUUACGGCCG | -2.37 ± 0.36 | -0.909 ± 0.39 |
| UCGAAGCAAUAUUACGCAUA | -3.01 ± 0.36 | -2.72 ± 0.26 |
| AUGCAGCAAUAUUACGCGGG | -2.94 ± 0.17 | -2.49 ± 0.17 |

| Sequence | self-splicing fitness (ln) (30 °C) | self-splicing fitness (ln) (37 °C) |
| --- | --- | --- |
| GUACAGCAAUAUUACGUUAU | -4.01 ± 0.25 | -1.87 ± 0.14 |
| UUGAAGCAAUAUUACGACUG | -0.106 ± 0.073 | 0.183 ± 0.097 |
| CGUCAGCAAUAUUACGAGGU | -3.81 ± 0.47 | -3.03 ± 0.35 |
| GAGCAGCAAUAUUACGAGCG | -2.3 ± 0.092 | -1.11 ± 0.11 |
| CCAGAGCAAUAUUACGGUCG | -1.35 ± 0.1 | -0.448 ± 0.12 |
| CUUUAGCAAUAUUACGGAGA | -2.74 ± 0.49 |  |
| CGGCAGCAAUAUUACGGUAG | -0.745 ± 0.076 | -0.0175 ± 0.074 |
| CUAGAGCAAUAUUACGCUGA | -3.92 ± 0.23 | -2.25 ± 0.23 |
| GCGCAGCAAUAUUACGGCCC | -1.21 ± 0.14 | 0.349 ± 0.24 |
| CGCGAGCAAUAUUACGGCUA | -1.23 ± 0.15 | -1.98 ± 0.16 |
| GUUGAGCAAUAUUACGGAGU | -3.52 ± 0.29 | -2.7 ± 0.29 |
| AUUUAGCAAUAUUACGAACG | -0.287 ± 0.16 | -0.464 ± 0.29 |
| CAAAAGCAAUAUUACGGGAA | -2.69 ± 0.23 | -1.13 ± 0.2 |
| CAUGAGCAAUAUUACGGUUG | -1.97 ± 0.094 | -0.986 ± 0.12 |
| CCGCAGCAAUAUUACGCAAG | -1.41 ± 0.095 | -1.18 ± 0.13 |
| GCAUAGCAAUAUUACGAGGA | -2.47 ± 0.32 | -2.21 ± 0.22 |
| UCAAAGCAAUAUUACGCUCC |  | -2.37 ± 0.48 |
| CUCCAGCAAUAUUACGCGAU | -3.55 ± 0.13 | -2.24 ± 0.14 |
| CAAAAGCAAUAUUACGACUA | -1.52 ± 0.13 | -0.952 ± 0.12 |
| AUAAAGCAAUAUUACGGAAC | -2.45 ± 0.26 | -0.934 ± 0.19 |
| CAACAGCAAUAUUACGGGUG | -1.65 ± 0.051 | -0.569 ± 0.057 |
| CCUUAGCAAUAUUACGACCA | -2.66 ± 0.36 |  |
| CGCGAGCAAUAUUACGCCGU | -3.93 ± 0.47 | -3.01 ± 0.4 |
| AUACAGCAAUAUUACGUAUU | -3.18 ± 0.16 | -2.54 ± 0.2 |
